Results taken from patent publication US10772928B2, “Modulation and detection of a neuronal alternative splicing regulatory network for treatment and diagnosis of neurological disorders” (The Governing Council of the University of Toronto, priority 2014, dated 2020).

Target: T1, nSR100 (Mus musculus, UniProt Q8BKA3)
T1 construct: host or cells: mouse N2A cells
T1 sequence (Q8BKA3 1-608): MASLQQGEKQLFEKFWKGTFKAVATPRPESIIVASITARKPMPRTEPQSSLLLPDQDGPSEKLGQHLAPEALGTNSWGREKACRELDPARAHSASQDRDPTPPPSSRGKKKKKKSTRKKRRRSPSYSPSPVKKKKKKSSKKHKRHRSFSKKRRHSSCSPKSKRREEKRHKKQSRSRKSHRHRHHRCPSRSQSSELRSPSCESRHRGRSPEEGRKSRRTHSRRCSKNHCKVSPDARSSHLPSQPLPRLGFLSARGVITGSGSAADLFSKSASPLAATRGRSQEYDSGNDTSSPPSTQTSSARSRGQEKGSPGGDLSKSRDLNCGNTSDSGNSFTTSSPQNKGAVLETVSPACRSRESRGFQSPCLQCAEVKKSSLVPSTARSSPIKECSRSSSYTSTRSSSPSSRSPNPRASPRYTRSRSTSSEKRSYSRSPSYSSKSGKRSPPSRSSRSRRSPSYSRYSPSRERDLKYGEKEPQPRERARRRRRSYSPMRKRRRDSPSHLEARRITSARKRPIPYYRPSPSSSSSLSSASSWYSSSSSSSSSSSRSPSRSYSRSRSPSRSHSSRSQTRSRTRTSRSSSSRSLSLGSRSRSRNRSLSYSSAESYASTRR
Test: AP-MS nSR100 interaction partners from mouse N2A cells (Table 5)
Assay type: binding
Conditions: for AvgP (average of the SAINT scores) / MaxP (maximal SAINT score): bait Srrm4; for FoldChange between the prey Avg spectra of the bait and control purifications: bait Srrm4, 0.1 added to prevent division by 0; for AvgSpec (average number of spectra per replicate): bait Srrm4, 2 replicates; for Spectra (number of spectra for the prey in the purification of the bait): AP-MS; for SpecSum: bait Srrm4, sum of spectra over 2 replicates

[1] = bait Srrm4, biological replicate 1 (first number of the cell)
[2] = bait Srrm4, biological replicate 2 (second number of the cell)

From the text: By applying affinity purification coupled to mass-spectrometry (AP-MS), several interaction nSR100 partner proteins were detected that provide insight into mechanisms of post-translational regulation of nSR100 levels.

Row | Molecule | AvgP (average of the SAINT scores) | MaxP (maximal SAINT score) | FoldChange between the prey Avg spectra of the bait and control purifications | AvgSpec (average number of spectra per replicate) | Spectra (number of spectra for the prey in the purification of the bait) [1] | Spectra (number of spectra for the prey in the purification of the bait) [2] | SpecSum
1 | Sf3b1 (protein, UniProt Q99NB9 1-1304, looked up) Splicing factor 3B subunit 1: MAKIAKTHEDIEAQIREIQGKKAALDEAQGVGLDSTGYYDQEIYGGSDSRFAGYVTSIAATELEDDDDDYSSSTSLLGQKKPGYHAPVALLNDIPQSTEQYDPFAEHRPPKIADREDEYKKHRRTMIISPERLDPFADGGKTPDPKMNARTYMDVMREQHLTKEEREIRQQLAEKAKAGELKVVNGAAASQPPSKRKRRWDQTADQTPGATPKKLSSWDQAETPGHTPSLRWDETPGRAKGSETPGATPGSKIWDPTPSHTPAGAATPGRGDTPGHATPGHGGATSSARKNRWDETPKTERDTPGHGSGWAETPRTDRGGDSIGETPTPGASKRKSRWDETPASQMGGSTPVLTPGKTPIGTPAMNMATPTPGHIMSMTPEQLQAWRWEREIDERNRPLSDEELDAMFPEGYKVLPPPAGYVPIRTPARKLTATPTPLGGMTGFHMQTEDRTMKSVNDQPSGNLPFLKPDDIQYFDKLLVDVDESTLSPEEQKERKIMKLLLKIKNGTPPMRKAALRQITDKAREFGAGPLFNQILPLLMSPTLEDQERHLLVKVIDRILYKLDDLVRPYVHKILVVIEPLLIDEDYYARVEGREIISNLAKAAGLATMISTMRPDIDNMDEYVRNTTARAFAVVASALGIPSLLPFLKAVCKSKKSWQARHTGIKIVQQIAILMGCAILPHLRSLVEIIEHGLVDEQQKVRTISALAIAALAEAATPYGIESFDSVLKPLWKGIRQHRGKGLAAFLKAIGYLIPLMDAEYANYYTREVMLILIREFQSPDEEMKKIVLKVVKQCCGTDGVEANYIKTEILPPFFKHFWQHRMALDRRNYRQLVDTTVELANKVGAAEIISRIVDDLKDEAEQYRKMVMETIEKIMGNLGAADIDHKLEEQLIDGILYAFQEQTTEDSVMLNGFGTVVNALGKRVKPYLPQICGTVLWRLNNKSAKVRQQAADLISRTAVVMKTCQEEKLMGHLGVVLYEYLGEEYPEVLGSILGALKAIVNVIGMHKMTPPIKDLLPRLTPILKNRHEKVQENCIDLVGRIADRGAEYVSAREWMRICFELLELLKAHKKAIRRATVNTFGYIAKAIGPHDVLATLLNNLKVQERQNRVCTTVAIAIVAETCSPFTVLPALMNEYRVPELNVQNGVLKSLSFLFEYIGEMGKDYIYAVTPLLEDALMDRDLVHRQTASAVVQHMSLGVYGFGCEDSLNHLLNYVWPNVFETSPHVIQAVMGALEGLRVAIGPCRMLQYCLQGLFHPARKVRDVYWKIYNSIYIGSQDALIAHYPRIYNDDKNTYIRYDLDYIL | 1 | 1 | 3.45 | 112 | 92 | 132 | 224
2 | Prpf4b (protein, UniProt Q61136 2-1007, looked up) Serine/threonine-protein …: AATEPPSLREQAEMDDADNSEKSVNEENGEVSEDQSQNKHSRHKKKKHKHRSKHKKHKHSSEEDRDKKHKHKHKHKKHKRKEVIEASDKEGLSPAKRTKLDDLALLEDLEKQRALIKAELDNELMEGKVQSGMGLILQGYESGSEEEGEIHEKARNGNRSSTRSSSTRGKLEITDNKNSAKKRSKSRSKERTRHRSDKRKSKGAGEMLREKANRSKSKERRKSKSPSKRSKSQDQARKSKSPPLRRRSQEKVGKARSPAEEKMKSEEKGKIKDRKKSPIVNERSRDRSKKSKSPVDLRDKSKDRRSRSKERKSKRSEIDKEKKPIKSPSKDASSGKENRSPSRRPGRSPKRRSLSPKLRDKSRRSRSPLLNDRRSKQSKSPSRTLSPGRRAKSRSLERKRREPERRRLSSPRTRPRDDILGRCERSKDASPINRWSPTRRRSRSPIRRRSRSPLRRSRSPRRRSRSPRRRDRSRRSRSRLRRRSRSRGGHRRRSRSKVKEDKFKGSLSEGMKVEQESSSDDNLEDFDVEEEDEEALIEQRRIQRQAIVQKYKYLAEDSNISVPSEPSSPQSSTRSRSPSPDDILERVAADVKEYERENVDTFEASVKAKHNLMTVEQNNGSSQKKILAPDMFTESDDMFAAYFDSARLRAAGIGKDFKENPNLRDNWTDAEGYYRVNIGEVLDKRYNVYGYTGQGVFSNVVRARDNARANQEVAVKIIRNNELMQKTGLKELEFLKKLNDADPDDKFHCLRLFRHFYHKQHLCLVFEPLSMNLREVLKKYGKDVGLHIKAVRSYSQQLFLALKLLKRCNILHADIKPDNILVNESKTILKLCDFGSASHVADNDITPYLVSRFYRAPEIIIGKSYDYGIDMWSVGCTLYELYTGKILFPGKTNNHMLKLAMDLKGKMPNKMIRKGVFKDQHFDQNLNFMYIEVDKVTEREKVTVMSTINPTKDLLADLIGCQRLPEDQRKKVHQLKDLLDQILMLDPAKRISINQALQHAFIQEKI | 1 | 1 | 45 | 4.5 | 4 | 5 | 9
3 | Sf1 (protein, UniProt Q64213 2-653, looked up) Splicing factor 1: ATGANATPLDFPSKKRKRSRWNQDTMEQKTVIPGMPTVIPPGLTREQERAYIVQLQIEDLTRKLRTGDLGIPPNPEDRSPSPEPIYNSEGKRLNTREFRTRKKLEEERHTLITEMVALNPDFKPPADYKPPATRVSDKVMIPQDEYPEINFVGLLIGPRGNTLKNIEKECNAKIMIRGKGSVKEGKVGRKDGQMLPGEDEPLHALVTANTMENVKKAVEQIRNILKQGIETPEDQNDLRKMQLRELARLNGTLREDDNRILRPWQSSETRSITNTTVCTKCGGAGHIASDCKFQRPGDPQSAQDKARMDKEYLSLMAELGEAPVPASVGSTSGPATTPLASAPRPAAPASNPPPPSLMSTTQSRPPWMNSGPSENRPYHGMHGGGPGGPGGGPHSFPHPLPSLTGGHGGHPMQHNPNGPPPPWMQPPPPPMNQGPHPPGHHGPPPMDQYLGSTPVGSGVYRLHQGKGMMPPPPMGMMPPPPPPPSGQPPPPPSGPLPPWQQQQQQPPPPPPPSSSMASSTPLPWQQNTTTTTTSAGTGSIPPWQQQQAAAAASPGTPQMQGNPTMVPLPPGVQPPLPPGAPPPPPCSIECLLCLLSSPNSLCLSPNRAARIPPRGSDGPSHESEDFPRPLVTLPGRQPQQRPWWTGWFGKAA | 1 | 1 | 11.92 | 71.5 | 70 | 73 | 143
4 | Rbm25 (protein, UniProt B2RY56 1-838, looked up) RNA-binding protein 25: MSFPPHLNRPPMGIPALPPGIPPPQFPGFPPPVPPGTPMIPVPMSIMAPAPTVLVPTVSMVGKHLGARKDHPGLKLKENDENCGPTTTVFVGNISEKASDMLIRQLLAKCGLVLSWKRVQGASGKLQAFGFCEYKEPESTLRALRLLHDLQIGEKKLLVKVDAKTKAQLDEWKAKKKANGNARPETVTNDDEEALDEETKRRDQMIKGAIEVLIREYSSELNAPSQESDSHPRKKKKEKKEDIFRRFPVAPLIPYPLITKEDINAIEMEEDKRDLISREISKFRDTHKKLEEEKGKKEKERQEIEKERRERERERERERERREREREREREREREKEKERERERERDRDRDRTKERDRDRERDRDRDRERSSDRNKDRSRSREKSRDREREREREREREREREREREREREREREREREREKDKKRDREEDEEDAYERRKLERKLREKEAAYQERLKNWEIRERKKTREYEKEAEREEERRREMAKEAKRLKEFLEDYDDDRDDPKYYRGSALQKRLRDREKEMEADERDRKREKEELEEIRQRLLAEGHPDPDAELQRMEQEAERRRQPQIKQEPESEEEEEEKQEKEEKREEPVEEEEEPEQKPCLKPTLRPISSAPSVSSASGNATPNTPGDESPCGIIIPHENSPDQQQPEEHRPKIGLSLKLGASNSPGQPNSVKRKKLPVDSVFNKFEDEDSDDVPRKRKLVPLDYGEDDKNATKGTVNTEEKRKHIKSLIEKIPTAKPELFAYPLDWSIVDSILMERRIRPWINKKIIEYIGEEEATLVDFVCSKVMAHSSPQSILDDVAMVLDEEAEVFIVKMWRLLIYETEAKKIGLVK | 1 | 1 | 180 | 18 | 16 | 20 | 36
5 | Sf3a1 (protein, UniProt Q8K4Z5 1-791, looked up) Splicing factor 3A subunit 1: MQAGPVQAVPPPPPVATESKQPIEEEASSKEDPTPSKPVVGIIYPPPEVRNIVDKTASFVARNGPEFEARIRQNEINNPKFNFLNPNDPYHAYYRHKVSEFKEGKAQEPSAAIPKVMQQQQQATQQQLPQKVQAQVIQETIVPKEPPPEFEFIADPPSISAFDLDVVKLTAQFVARNGRQFLTQLMQKEQRNYQFDFLRPQHSLFNYFTKLVEQYTKILIPPKGLFSKLKKEAENPREVLDQVCYRVEWAKFQERERKKEEEEKEKERVAYAQIDWHDFVVVETVDFQPNEQGNFPPPTTPEELGARILIQERYEKFGESEEVEMEVESDEEDQEKAEETPSQLDQDTQVQDMDEGSDDEEEGQKVPPPPETPMPPPLPPTPDQVIVRKDYDPKASKPLPPAPAPDEYLVSPITGEKIPASKMQEHMRIGLLDPRWLEQRDRSIREKQSDDEVYAPGLDIESSLKQLAERRTDIFGVEETAIGKKIGEEEIQKPEEKVTWDGHSGSMARTQQAAQANITLQEQIEAIHKAKGLVPEDDTKEKIGPSKPNEIPQQPPPPSSATNIPSSAPPITSVPRPPAMPPPVRTTVVSAVPVMPRPPMASVVRLPPGSVIAPMPPIIHAPRINVVPMPPAAPPIMAPRPPPMIVPTAFVPAPPVAPVPAPAPMPPVHPPPPMEDEPPSKKLKTEDSLMPEEEFLRRNKGPVSIKVQVPNMQDKTEWKLNGQGLVFTLPLTDQVSVIKVKIHEATGMPAGKQKLQYEGIFIKDSNSLAYYNMASGAVIHLALKERGGRKK | 1 | 1 | 8.33 | 25 | 20 | 30 | 50
